# According to the nanobody polyreactivity screen of Harvey et al. (2022):
# Experiment: yeast display, Sf9 membrane polyspecificity reagent, FACS + sequencing; frameworks hold sequencing errors
# How it was run: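 Synthetic nanobody libraries on Saccharomyces cerevisiae BJ5465 were galactose-induced for 36–48 hours, stained 1 hour at 4 °C with 10% biotinylated, detergent-solubilized Sf9 membrane reagent and enriched on streptavidin microbeads. FACS then separated cells into low and high (top ~1%) gates by anti-HA (expression) and streptavidin (reagent binding) fluorescence. Genes were colony-PCR amplified, MiSeq 2 × 250 sequenced and CDR-length filtered. A clone's polyreactivity label is that of its gate of origin.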
row,Sequence,polyreactivity (PSR sort gate)
1,QVQLVESGGGLVQAGGSLRLSCAASGIIFGGNVMGRYRQAPGKVRELVAAITWSGGTTYYADSVKGRFTISRDNAKNTVYLQMNSLKPEDTAVYYCAADRVYLDYVAGTYDYWGQGTQVTVSS,low polyreactivity
2,QVQLVESGGGLVQAGGSLRLSCAASGIIFGKYAMGWYRQAPGKERELVASITVDGGTTYYADSVKGRFTISRDNAKNTVYLQMNSLKPEDTAVYYCATGVFAEQWFDYWPYDYWGQGTQVTVSS,high polyreactivity
3,QVQLVESGGGLVQAGGSLRLSCAASGIIFGKYVMGWYRQAPGKEREFVAAISVRSGSTYYADSVKGRFTISRDNAKNTVYLQMNSLKPEDTALYYCAAREPVPRHLDYYYWGQGTQVSVSS,high polyreactivity
4,QVQLVESGGGLVQAGGSLRLSCAASGIIFGNNAMGWYRQAPGKERELVAAIRWSTGTTYYADSVKGRFTISRDNAKNTVYLQMNSLKPEDTAVYYCAARLRREYGYWGQGTQVTVSS,high polyreactivity
5,QVQLVESGGGLVQAGGSLRLSCAASGIIFGPYAMGWYRQAPGKERELVAAISSSGGNTYYADSVKGRFTISRDNAKNTVYLQMNSLKPEYTAVYYCAAEGYWGQPFDYDGALEYWGQGTQVTVSS,high polyreactivity
6,QVQLVESGGGLVQAGGSLRLSCAASGIIFGPYAMGWYRQAPGKEWELVAAITWSGGGTYYADSVKGRFTISRDNAKNTVYLQMNSLKPEDTAVYYCAKYFPAGYYYWGQGTQVTVSS,low polyreactivity
7,QVQLVESGGGLVQAGGSLRLSCAASGIIFGRYAMGWYRQAPGKERELVAAISTSGGSTYYADSVKGRFTISRDNAKNTVYLQMNSLKPEDTAVYYCNAVPVVRAGHGYDSWGQGTQVTVSS,high polyreactivity
8,QVQLVESGGGLVQAGGSLRLSCAASGIIFGRYTMGWYRQAPGKERELVAAITSSGITYYADSVKGRFTISRDNAKNTVYLQMNSLKPEDSAVYYCNADYSIPGYYWPYDYWGQGTQVTVSS,low polyreactivity
9,QVQLVESGGGLVQAGGSLRLSCAASGIIFGRYTMGWYRQAPGKERELVAAITSSGITYYADSVKGRFTISRDNAKNTVYLQMNSLKPEDTAVYYCAAEYNWYDYWGQGTQVTVSS,low polyreactivity
10,QVQLVESGGGLVQAGGSLRLSCAASGIIFGSYAMGWYRQAPGKEREFVADISKGDSTYYADSVKGRFTISRDNAKNTVYLQMNSLKPEDTAVYYCAVDSWRRALWYYGRYGYWGQGTQVTVSS,low polyreactivity
11,QVQLVESGGGLVQAGGSLRLSCAASGIIFGTNAMGWYRQAPGKERELVAGITSSGDSTYYADSVKGRFTISRDNAKNTVYLQMNSLKPEDTAVYYCAAYSGVGFLWFDYWGQGTQVTVSS,low polyreactivity
12,QVQLVESGGGLVQAGGSLRLSCAASGIIFGTYAMGWYRQAPGKERDLVAAISSSGGSTYYADSVKGRFTISRDNAKNTVYLQMNSLKPEDTAVYYCAADGPSNHDYHWGQGTQVTVSS,high polyreactivity
13,QVQLVESGGGLVQAGGSLRLSCAASGIIFGTYAMGWYRQAPGKERELVAAINWSGGSTYYADSVKGRFTISRDNAKNTVYLQMNSLKPEDTAVYYCAADGNEYDYWGQGTQVSVSS,low polyreactivity
14,QVQLVESGGGLVQAGGSLRLSCAASGIIFGTYAMGWYRQAPGKERELVASISSRGGSTYYADSVKGRFTISRDNAKNTVYLQMNSLKPEDTAVYYCAKRPSYAYSRYRKGHDYWGQGTQVSVSS,high polyreactivity
15,QVQLVESGGGLVQAGGSLRLSCAASGIIFGVYAMGWYRQAPGKERELVAAIDGNGSSTYYADSVKGRFTISRDNAKNTVYLQMNSLKPEDTAVYYCAARPDYYLWHGYYTRRHYYWGQGTQVTVSA,low polyreactivity
16,QVQLVESGGGLVQAGGSLRLSCAASGIIFGWYAMGWYRPAPGKERELVAAISSGGRTNYADSVKGRFTISRDNAKNTVYLQMNSLKPEDTAVYYCAARLWENTGYYYWGQGTQVTVSS,high polyreactivity
17,QVQLVESGGGLVQAGGSLRLSCAASGIIFGYYAMGWYRQAPGKERELVAAISKRGGSTNYADSVKGRFTISRDNAKNTVYLQMNSLKPEDTAVYYCAARYPQGGTGKATYVRSRSGYWGQGTQVTVSS,high polyreactivity
18,QVQLVESGGGLVQAGGSLRLSCAASGIIFGYYAMGWYRQAPGKERELVAAISRGGNTNYADSVKGRFTISRDNAKNTVYLQMNSLKPEDTAVYYCAADFWSRIKYFYAVDVDYWGQGTQVTVSS,low polyreactivity
19,QVQLVESGGGLVQAGGSLRLSCAASGIIFGYYAMGWYRQAPGKERELVAAISRRGGSTYYADSVKGRFTISRDNAKNTVYLQMNSLKPEDTAVYYCNKRRAAGGFPYDYWGQGTQVTVSS,high polyreactivity
20,QVQLVESGGGLVQAGGSLRLSCAASGIIFHWYAMGWYRQAPGKERELVAAITQSGGSTSYADSVKGRFTISRDNAKNTVYLQMNSLKPEDTAVYYCAKDYAYTLWENYYAFNYWGQGTQVTVSS,low polyreactivity
21,QVQLVESGGGLVQAGGSLRLSCAASGIIFIAYAMGWYRQAPGKERELVADISIGGSTNYADSVKGRFTISRDNAKNTVYLQMNSLKPEDTAVYYCNAGGGFYGSTVEHDYWGQGTQVTVSS,low polyreactivity
22,QVQLVESGGGLVQAGGSLRLSCAASGIIFIFYDMGWYRQAPGTERELVAAITNGVDSTYYADSVKGRFTISRDNAKNTVYLQMNSLKPEDTAVYYCNADTVVEWYSPSREYDYWGQGTQVTVSS,low polyreactivity

row,Sequence,polyreactivity (PSR sort gate)
1,QVQLVESGGGLVQAGGSLRLSCAASGIIFITYAMGWYRQAPGKERELVAAITSDGNTNYADSVKGRFTISRDNAKNTVYLQMNSLKPEDTAVYYCNAETQYGVLSWHSTRHDYWGQGTQVTVSS,low polyreactivity
2,QVQLVESGGGLVQAGGSLRLSCAASGIIFITYAMGWYRQAPGKERELVAVISKGGGRTYYADSVKGRFTISRDNAKNTVYLQMNSLKPEDTAVYYCAARSSSNRYVHMDYWGQGTQVTVSS,high polyreactivity
3,QVQLVESGGGLVQAGGSLRLSCAASGIIFKDYAMGWYRQAPGKERELVAAISWNGDRTYYADSVKGRFTISRDNAKNTVYLQMNRLKPEDTAVYYCAARFGSCFNYWGQGTQVTVSS,high polyreactivity
4,QVQLVESGGGLVQAGGSLRLSCAASGIIFKGYPMGWYRPAPGKERELVAGISSGGTTYYADSVKGRFTISRDNAKITVYLQMNSLKPEDTAVYYCGAGPRRSYRFDYWGQGTQVTVSS,high polyreactivity
5,QVQLVESGGGLVQAGGSLRLSCAASGIIFKNYAMGWYRQAPGKERELVAAISKRGASTYYADSVKGRFTISRDNAKNTVYLQMNSLKPEDTAVYYCAAYRQGSAYDYWGQGTQVTVSS,high polyreactivity
6,QVQLVESGGGLVQAGGSLRLSCAASGIIFKNYAMGWYRQAPGKERELVAAISWRGGRTYYADSVKGRFTISRDNAKNTVYLQMNSLKPEDTAVYYCAKELYVSYRGGPWVDYWGQGTQVTVSS,high polyreactivity
7,QVQLVESGGGLVQAGGSLRLSCAASGIIFKSYAVGWYRQAPGKERELVAAISSGGSTNYADSVKGRFTISRDNAKNTVYLQMNSLKPEDTAVYYCAKRYTATEWHGERDYWGQGTQVTVSS,high polyreactivity
8,QVQLVESGGGLVQAGGSLRLSCAASGIIFKTYAKGWYRPAPAKERELVAAISRRGGSTYYADSVNGRFTISRDNAKNTVYLQMNSLKPEDTAVYYCAAEYGYVIAYTTRAFYYWGHGTQVTVSS,high polyreactivity
9,QVQLVESGGGLVQAGGSLRLSCAASGIIFKYYAMGWYRQAPGKERELVAAITGNGGSTYYADSVKGRFTISRDNAKNTVYLQMNSLKPEDTAVYYCATRWFAVHMYWGQGTQVTVSS,high polyreactivity
10,QVQLVESGGGLVQAGGSLRLSCAASGIIFLDNAMGWYRQAPGKERELVADITSSGGSTYYADSVKGRFTISRDNAKNTVSLQMNSLKPEDTAVYYCAATRPSYNDAESDYWGQGTQVTVSS,low polyreactivity
11,QVQLVESGGGLVQAGGSLRLSCAASGIIFLDYVMGWYRQAPGKERELVAAISRSGGTTYYADSVKGRFTISRDNAKNTVYLQMNSLKPEDTAVYYCAVRSYRDTRFYYWGQGTQVTVSS,high polyreactivity
12,QVQLVESGGGLVQAGGSLRLSCAASGIIFLFYAMGWYSQAPGKERELVGSITWSGGSTYYADSVKGRFTISRDTAKNTVYLQMNRLKPEDTAVYYCAASVKIISYLGQSEFLGGELDYWGQGTQVTVSS,low polyreactivity
13,QVQLVESGGGLVQAGGSLRLSCAASGIIFLVYAMGWSRQAPGKEGQLVAGISGSATSTNYADSVKGRFTISRDNAKNTVYLEMNSLKPEDTAVYYCAASYYGYYVPDNSKYGYWGQGTQVTVSS,low polyreactivity
14,QVQLVESGGGLVQAGGSLRLSCAASGIIFLVYAMGWYRQAPGKERELVAGISGSATSTNYADSVKGRFTISRDNAKNTVYLQMNSLKPEETAVYYCAASYYGYYVPDNSKYGYWGQGTQVTVSS,low polyreactivity
15,QVQLVESGGGLVQAGGSLRLSCAASGIIFLVYARGWYRKAPGKVRELVAGISGSATSTNYADSVKGRFTISRDNAKNTVFLQMNSLKPEDTAVYYCAPEPDHVADSHSGYDYWGQGTQVTVSS,low polyreactivity
16,QVQLVESGGGLVQAGGSLRLSCAASGIIFLWYAMGWYRQAPWKERELVAAISRTGSSTYYADSVKGRFTISRDNAKNTVYLQMNSLKPEDTAVYYCAAAYYSKRSWRFDYWGQGTQVTVSS,high polyreactivity
17,QVQLVESGGGLVQAGGSLRLSCAASGIIFLYYAMGWYRQAPGKEREFVAAISWSGGRTYYADSVKGRFTISRDNAKNTVYLQMNSLKPEDTAVYYCAATYALRKTGYDYWGQGTQVTVSS,high polyreactivity
18,QVQLVESGGGLVQAGGSLRLSCAASGIIFLYYAMGWYRQAPGKERELVAAISSGGSTYYADSVKGRFTISRDNAKNTVYLQMNSLKPEDTAVYYCAARPRKSRAYTALGDYWGQGTQVTVSS,high polyreactivity
19,QVQLVESGGGLVQAGGSLRLSCAASGIIFNDYAMGWYRQAPGNERELVATISWSGGSTYADSVKGLFTISRDNAKNTVYLQMNSLKPEDTAVYYCANQPTVYHHYGLGYWGQGTQVTVSS,low polyreactivity
20,QVQLVESGGGLVQAGGSLRLSCAASGIIFNRYAMGRYRQAPGKERELVASITSSGGSTHYADSVKGRFTISRDNAKNTVYLQMNSLKPEDTAVYYCAKQFPNNYRYYLHYYYWGQGTQVTVSS,low polyreactivity
21,QVQLVESGGGLVQAGGSLRLSCAASGIIFNTYAMGWYRPAPGKERELVAGIDYSGGGTSYADSVKGRFTISRDNAKNTVYLQMNSLKPEDTAVYYCAADAYSGAYFTYLGEIYDYWGQGTQVTVSS,low polyreactivity
